Measurements taken from publication PMC3288515.
Read-outs that look alike come from different tables or passages of the source.

B1: κE3' PU.1-STAT5 probe (dsDNA)
DNA 1: CTTTGAGGAACTGAAAACAGAACCT
DNA 2: AGGTTCTGTTTTCAGTTCCTCAAAG
B2: SV40 PU.1 probe (dsDNA)
DNA 1: TGAAATAACCTCTGAAAGAGGAACTTGGTTAGGTA
DNA 2: TACCTAACCAAGTTCCTCTTTCAGAGGTTATTTCA

Key:
Experiment in all cases: EMSA
PU.1 [1] = molecular target: T1, PU.1 (UniProt P17433 1-272)
[2] = molecular target: T2, STAT5 (STAT5a cDNA used for the retroviral construct) (UniProt P42230 1-793)
T2 sequence (P42230 whole entry): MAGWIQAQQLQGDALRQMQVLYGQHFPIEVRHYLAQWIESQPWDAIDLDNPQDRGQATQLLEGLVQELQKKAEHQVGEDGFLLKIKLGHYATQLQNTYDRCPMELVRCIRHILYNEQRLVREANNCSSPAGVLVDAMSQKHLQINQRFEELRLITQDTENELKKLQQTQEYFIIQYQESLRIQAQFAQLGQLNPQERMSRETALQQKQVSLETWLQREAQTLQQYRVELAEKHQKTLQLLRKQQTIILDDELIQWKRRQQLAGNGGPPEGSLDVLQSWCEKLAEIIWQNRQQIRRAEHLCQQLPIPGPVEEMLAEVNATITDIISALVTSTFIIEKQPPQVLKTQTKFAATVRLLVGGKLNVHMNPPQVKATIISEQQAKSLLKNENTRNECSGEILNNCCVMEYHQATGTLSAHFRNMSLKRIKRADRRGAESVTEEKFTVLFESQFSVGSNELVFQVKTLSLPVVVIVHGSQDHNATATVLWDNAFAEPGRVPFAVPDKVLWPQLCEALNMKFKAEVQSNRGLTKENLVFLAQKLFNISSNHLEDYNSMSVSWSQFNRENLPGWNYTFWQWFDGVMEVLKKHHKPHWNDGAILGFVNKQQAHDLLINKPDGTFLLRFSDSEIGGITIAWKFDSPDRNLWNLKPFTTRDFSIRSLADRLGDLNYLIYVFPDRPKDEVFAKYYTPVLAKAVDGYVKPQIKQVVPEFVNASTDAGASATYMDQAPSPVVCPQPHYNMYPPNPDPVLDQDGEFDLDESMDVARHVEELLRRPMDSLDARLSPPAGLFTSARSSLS

[3] = molecular target: T2, STAT5 (STAT5a cDNA used for the …); remark: listed apart in the source
PU.1 [4] = molecular target: T1, PU.1; remark: listed apart in the source

Row | Binder | binding result (PU.1 [1]) | binding result [2] | binding result [3] | binding result (PU.1 [4])
1 | B1 | binds | binds | – | –
2 | B2 | – | – | no binding | binds
